Entries after “also recorded” stand apart in the source; their conditions may differ.
Columns and labels:
Human monocytes = test: CD86 expression of human monocytes cultured with Tat derivative; format: cell-based; details: cultured 24-48 hours; fluorescent-labeled CD86; compared with ISS (TLR) or LPS
Protocol: Human monocytes were cultured for 24-48 hours with a Tat derivative (Nani-P2), an immunostimulatory sequence (ISS) of a toll-like receptor (TLR) (FIG. 1), or lipopolysaccharide (LPS) (FIG. 2) and the cells were then washed and stained with fluorescent-labeled CD86.

PD-L1 = test: IHC staining of primary 4T1 breast tumors for PD-L1; format: in vivo, mouse; details: therapy initiated 7 days after inoculation, resected Day 29/30
Protocol: Female BALB/c mice were inoculated in the mammary fat pad with syngeneic and highly metastatic 4T1 breast cancer cells to model Stage IV human breast cancer. Nani-P2 immunotherapy was initiated 7 days after tumor cell inoculation. Tumors were assessed by caliper measurements throughout the study and resected on Day 29/30. Immunohistochemical staining (IHC) for PD-L1 and CD8 was performed on formalin-fixed, paraffin embedded specimens of primary 4T1 tumors.

[1] = Toxicity observed in treated mice; format: in vivo, mouse; details: SC or IV 40 ng, multiple trials, multiple dosing schedules
4T1 lung metastases = test: Detection of 4T1 lung metastases; format: in vivo, mouse
From the text: Lungs were examined for 4T1 metastases as previously described (Pulaski B. et al. Cancer Res. 60:2710-2715, 2000). Primary 4T1 tumors that have been established for 2-3 weeks in BALB/c mice metastasize to the lungs in a very large majority of animals. Briefly, mice were sacrificed according to IACUC guidelines established at the start of the trials, the lungs were removed, and tumor nodules on the surface of the lungs were enumerated with the naked eye by two independent investigators blinded to the treatment protocols.
To further investigate the efficacy of Nani-P2 against established and metastatic breast cancer, 4T1 cells were injected SC in the abdominal mammary gland of mice and treatment was delayed until such time that the tumors had metastasized to the lungs and averaged 3.5 mm in size (FIG. 8A, day 13), corresponding to a 2.4 cm or stage T2 human breast tumor. Mice were followed for tumor growth (FIG. 8A) and lung metastases (FIG. 8B). […] This corresponded to a less aggressive appearance of primary tumor, as well as lung metastases that were on average much smaller in size (FIG. 8B).

SM1 breast cancer cells = test: SM1 mammary carcinoma model, primary tumor growth; format: in vivo, mouse
Protocol: BALB/c mice were injected (SC) with 1×10^4 4 T1, 1×10^5 TS/A or 2×10^5 SM1 cells, respectively, in the left mammary pad on day 0. […] The control group received PBS injection. […] Tumor burden (tumor volume) was measured and recorded three times weekly. Animals were sacrificed when tumors reached a volume of 15 mm in diameter and the tumors harvested and weighed.
The SM1 mammary carcinoma model (FIG. 6B) is initially less aggressive as a primary tumor, and deaths appear to be through mechanisms other than metastatic disease. By day 30 of treatment, SM1 tumors reached a mean volume approximately 33% smaller than either TS/A or 4T1. This indicated a heightened sensitivity of the SM1 tumor to Nani-P2 immunotherapy as compared to 4T1, such that tumor growth was suppressed in 100% of animals for 16 days, and 40% of animals remained in remission even at 28 days following implant and fully one week after termination of the regimen.

B1: Nani-P2: Tat derivative polypeptide SEQ ID NO:3; TF SIVagmVer, cysteine-rich HIV-1, C-terminal SIVagmVer (protein)
chain: MDPKGEEDQDVSHQDLIKQYRKPRTACNNCYCKKCCFHCYACFLRKGLGITYHAFRTRRKKIASADRIPVPQQSISIRGRDSQTTQESQKKVEEQAKANLRISRKNLGDETRGPVGAGN
modifications: Tat derivative polypeptide
notes: TF SIVagmVer, cysteine-rich HIV-1, C-terminal SIVagmVer
Human monocytes
  expression of CD86: higher expression of CD86 than either ISS (TLR) or LPS
PD-L1
  PD-L1 expression in primary 4T1 tumors versus controls: reduced
PD-L1; listed as PIN-2
  PD-L1 expression in primary 4T1 tumors versus controls: reduced PD-L1 presence near the tumor edge
[1]
  toxicity: no toxicity was observed
4T1 lung metastases; 4T1 model
  lung metastases versus controls: significantly inhibited the development of spontaneous 4T1 lung metastases; also recorded: dramatic reduction in the visible number of lung metastases
4T1 lung metastases; treated IV, treatment delayed to day 13, p<0.01
  average number of grossly visible tumor nodules in the lungs: seven
SM1 breast cancer cells; 40 ng SC days 0, 7, 14, 21
  animals with SM1 tumor growth suppressed for 16 days: 100%
SM1 breast cancer cells; 40 ng SC days 0, 7, 14, 21, p<0.01
  difference in SM1 primary tumor growth versus control: highly statistically significant
SM1 breast cancer cells; 40 ng SC, one week after termination of the regimen
  animals remaining in remission at 28 days following implant: 40%

Source: patent publication US10159707B2, “Treatment of cancers with immunostimulatory HIV Tat derivative polypeptides” (PIN Pharma, Inc., priority 2013, dated 2018)
